Laboratory results: paper PMC4518479, “Rad51 Paralogs Remodel Pre-synaptic Rad51 Filaments to Stimulate Homologous Recombination” (Cell, 2015)
Where a chain is given by its changes, count along the chain named. Each block holds one binder with its values, some of them ahead of it.

Legend:
RAD-51;RFS-1/RIP-1 = target: T1, RAD-51;RFS-1/RIP-1 (Caenorhabditis elegans;Caenorhabditis …, UniProt Q7K7I8;P34348;Q21621 1-357;1-245;1-209, |); test: EMSA with anti-FLAG immuno-shift; ATP; RFS-1/RIP-1 bound to RAD-51 filament; EMSA: 20 mM triethanolamine-HCl pH 7.5, 8% glycerol, 1 mM DTT, 50 mM sodium acetate, 2 mM MgCl2 + 2 mM nucleotide (or 10 mM EDTA), 100 nM (nt) DNA, 25 °C; conditions: protein: recombinant;recombinant; label: 5'-32P or 5'-fluorescein
T1 sequence 1: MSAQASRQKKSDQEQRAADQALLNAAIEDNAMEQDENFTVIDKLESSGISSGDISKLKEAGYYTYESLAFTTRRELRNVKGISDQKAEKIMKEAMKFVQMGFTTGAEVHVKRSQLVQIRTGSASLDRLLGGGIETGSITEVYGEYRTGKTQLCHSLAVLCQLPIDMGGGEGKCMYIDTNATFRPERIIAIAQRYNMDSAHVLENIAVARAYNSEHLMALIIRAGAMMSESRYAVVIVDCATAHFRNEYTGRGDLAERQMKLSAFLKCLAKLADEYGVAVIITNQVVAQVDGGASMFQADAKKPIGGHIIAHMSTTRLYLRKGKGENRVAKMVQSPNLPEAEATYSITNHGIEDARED
T1 sequence 2: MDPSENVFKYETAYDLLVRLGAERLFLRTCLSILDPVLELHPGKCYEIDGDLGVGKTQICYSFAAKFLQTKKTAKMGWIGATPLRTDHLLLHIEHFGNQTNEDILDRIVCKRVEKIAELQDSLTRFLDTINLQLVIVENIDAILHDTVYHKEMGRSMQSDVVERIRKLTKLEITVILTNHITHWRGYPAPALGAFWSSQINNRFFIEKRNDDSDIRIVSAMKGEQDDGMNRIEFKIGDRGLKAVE
T1 sequence 3: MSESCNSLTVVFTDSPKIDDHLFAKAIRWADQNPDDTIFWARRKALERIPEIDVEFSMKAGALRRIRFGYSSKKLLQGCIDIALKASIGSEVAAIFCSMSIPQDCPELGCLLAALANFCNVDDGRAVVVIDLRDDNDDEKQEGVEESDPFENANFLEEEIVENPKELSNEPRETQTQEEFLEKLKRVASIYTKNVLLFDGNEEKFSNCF

RFS-1/RIP-1 [1] = target: T2, RFS-1/RIP-1 (Caenorhabditis elegans, UniProt P34348;Q21621 1-245;1-209); test: EMSA; weak binding; nucleotide independent; EMSA: 20 mM triethanolamine-HCl pH 7.5, 8% glycerol, 1 mM DTT, 50 mM sodium acetate, 2 mM MgCl2 + 2 mM nucleotide (or 10 mM EDTA), 100 nM (nt) DNA, 25 °C; conditions: protein: recombinant; copies: 1;1; label: 5'-32P or 5'-fluorescein
T2 sequence 1: T1 sequence 2
T2 sequence 2: T1 sequence 3

RAD-51;RFS-1(K56A)/RIP-1 = target: T3, RAD-51;RFS-1(K56A)/RIP-1 (Caenorhabditis elegans;Caenorhabditis …, UniProt Q7K7I8;P34348;Q21621 1-357;1-245;1-209, |K56A); test: EMSA; ATP; filament binding similar to wild type; EMSA: 20 mM triethanolamine-HCl pH 7.5, 8% glycerol, 1 mM DTT, 50 mM sodium acetate, 2 mM MgCl2 + 2 mM nucleotide (or 10 mM EDTA), 100 nM (nt) DNA, 25 °C; conditions: protein: recombinant;recombinant; tags: none (His-SUMO tag cleaved);3xFLAG at RIP-1 C-terminus; label: 5'-32P or 5'-fluorescein
T3 sequence 1: T1 sequence 1
T3 sequence 2: T1 sequence 2 with K56A
T3 sequence 3: T1 sequence 3

[2] = target: T4, RAD-51;RFS-1(E138A)/RIP-1 (Caenorhabditis elegans;Caenorhabditis …, UniProt Q7K7I8;P34348;Q21621 1-357;1-245;1-209, |E138A); test: as above; conditions: protein: recombinant;recombinant; tags: none (His-SUMO tag cleaved);3xFLAG at RIP-1 C-terminus; label: 5'-32P or 5'-fluorescein
T4 sequence 1: T1 sequence 1
T4 sequence 2: T1 sequence 2 with E138A
T4 sequence 3: T1 sequence 3

RFS-1(K56A)/RIP-1 = target: T5, RFS-1(K56A)/RIP-1 (Caenorhabditis elegans, UniProt P34348;Q21621 1-245;1-209, K56A); test: EMSA; increased ssDNA affinity relative to wild type; EMSA: 20 mM triethanolamine-HCl pH 7.5, 8% glycerol, 1 mM DTT, 50 mM sodium acetate, 2 mM MgCl2 + 2 mM nucleotide (or 10 mM EDTA), 100 nM (nt) DNA, 25 °C; conditions: protein: recombinant; tags: 3xFLAG at RIP-1 C-terminus; copies: 1;1; label: 5'-32P or 5'-fluorescein
T5 sequence 1: T1 sequence 2 with K56A
T5 sequence 2: T1 sequence 3

RFS-1(E138A)/RIP-1 = target: T6, RFS-1(E138A)/RIP-1 (Caenorhabditis elegans, UniProt P34348;Q21621 1-245;1-209, E138A); test: as above; conditions: protein: recombinant; tags: 3xFLAG at RIP-1 C-terminus; copies: 1;1; label: 5'-32P or 5'-fluorescein
T6 sequence 1: T1 sequence 2 with E138A
T6 sequence 2: T1 sequence 3

RFS-1/RIP-1 [3] = target: T2, RFS-1/RIP-1; test: EMSA; EMSA: 20 mM triethanolamine-HCl pH 7.5, 8% glycerol, 1 mM DTT, 50 mM sodium acetate, 2 mM MgCl2 + 2 mM nucleotide (or 10 mM EDTA), 100 nM (nt) DNA, 25 °C; conditions: protein: recombinant; copies: 1;1; label: 5'-32P; blunt
[4] = target: T7, FLAG-tagged RIP-1 co-expressed with RFS-1 in budding yeast (C. elegans, UniProt Q21621 1-209); test: SEC; 3 ml Superdex 75 5/150 GL column loaded with 30 ul RFS-1/RIP-1 from single-step FLAG immunoprecipitation; size from molecular weight markers; conditions: both partners purified
T7 construct: RIP-1 of C. elegans (R01H10.5); also called RIP-1-FLAG; source: budding yeast, co-expressed with RFS-1, in extract; purified by FLAG immunoprecipitation; not shown: FLAG, C-terminal, kept
T7 sequence (looked up): T1 sequence 3

B1: 60-mer ssDNA (ssDNA)
DNA: ACGCTGCCGAATTCTACCAGTGCCTTGCTAGGACATCTTTGCCCACCTGCAGGTTCACCC
binding result (RAD-51;RFS-1/RIP-1): binds | binding result (RFS-1/RIP-1 [1]): binds | binding result (RAD-51;RFS-1(K56A)/RIP-1): binds | binding result [2]: binds | binding result (RFS-1(K56A)/RIP-1): binds | binding result (RFS-1(E138A)/RIP-1): binds

B2: 60-mer dsDNA (dsDNA)
DNA 1: B1 DNA
DNA 2: GGGTGAACCTGCAGGTGGGCAAAGATGTCCTAGCAAGGCACTGGTAGAATTCGGCAGCGT
binding result (RFS-1/RIP-1 [3]): no binding

stoichiometry N [4]: 1
B3: RFS-1 co-expressed with RIP-1 in budding yeast (natural protein, C. elegans, UniProt P34348 1-245, looked up)
chain: T1 sequence 2
notes: RFS-1 of C. elegans; see Supplemental Experimental Procedures; also called recombinant RFS-1; source: budding yeast, co-expressed with RIP-1, in extract; co-purified by FLAG immunoprecipitation
